Experimental data taken from publication PMC6539845.
Like-named read-outs stand apart in the source and are kept apart here. Blank lines part the entries; values can stand above or below the substance they belong to.

Key:
[1] = molecular target: single-ring α7 mutant α7^SR (S96D, S100D, F102R, Y104R) (human); test: native MS; α4 or α6 (4 μM monomers) mixed with α7^SR (4 μM heptamer), 20 °C, 1 h; α2 incubated with α7^SR before buffer exchange; 150 mM ammonium acetate
[2] = molecular target: monomeric α7 mutant α7* (N-terminal residues 1-22 replaced with a hexahistidine-containing segment) (human) (UniProt P25788); test: SEC; α1–α6 (20 μM monomers) mixed with an equimolar amount of α7*, 20 °C, 1 h; SDS-PAGE (CBB) of the purified complexes
[3] = molecular target: human proteasome α7 subunit, wild type (human) (UniProt P25788); test: SEC; wild-type α7 in the presence of α1–α6 or α7* (20 μM monomers); loss of the tetradecamer peak
Sequence of human proteasome α7 subunit, wild type (human) (P25788 whole entry, canonical isoform): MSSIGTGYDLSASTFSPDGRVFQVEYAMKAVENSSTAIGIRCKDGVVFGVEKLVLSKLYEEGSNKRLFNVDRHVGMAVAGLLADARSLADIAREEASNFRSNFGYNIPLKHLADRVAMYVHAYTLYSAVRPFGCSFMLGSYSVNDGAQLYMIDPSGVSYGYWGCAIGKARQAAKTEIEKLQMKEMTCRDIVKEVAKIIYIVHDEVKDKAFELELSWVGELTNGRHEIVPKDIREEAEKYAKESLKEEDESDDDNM

[4] = molecular target: human proteasome α6 subunit, short isoform (human) (UniProt P25786); test: native MS; single proteins, 5–20 μM monomers, 150 mM ammonium acetate (pH 6.8–8.0), nanoflow electrospray
[5] = molecular target: human proteasome α7 subunit, wild type (human) (UniProt P25788); test: native MS; α4 or α6 (4 μM monomers) mixed with α7 (2 μM tetradecamer), 20 °C, 1 h, 150 mM ammonium acetate
[6] = molecular target: human proteasome α7 subunit, wild type (human) (UniProt P25788); test: as above; remark: listed apart in the source
[7] = molecular target: human proteasome α7 subunit, wild type (human) (UniProt P25788); test: native MS; single proteins, 5–20 μM monomers, 150 mM ammonium acetate (pH 6.8–8.0), nanoflow electrospray
[8] = molecular target: single-ring α7 mutant α7^SR (S96D, S100D, F102R, Y104R) (human); test: atomic force microscopy; α7^SR alone (Figure S2); height of the ring
[9] = molecular target: single-ring α7 mutant α7^SR (S96D, S100D, F102R, Y104R) (human); test: native MS; single proteins, 5–20 μM monomers, 150 mM ammonium acetate (pH 6.8–8.0), nanoflow electrospray
[10] = molecular target: single-ring α7 mutant α7^SR (S96D, S100D, F102R, Y104R) (human); test: as above; remark: listed apart in the source

Sequence of human proteasome α6 subunit, short isoform (P25786 whole entry, canonical isoform): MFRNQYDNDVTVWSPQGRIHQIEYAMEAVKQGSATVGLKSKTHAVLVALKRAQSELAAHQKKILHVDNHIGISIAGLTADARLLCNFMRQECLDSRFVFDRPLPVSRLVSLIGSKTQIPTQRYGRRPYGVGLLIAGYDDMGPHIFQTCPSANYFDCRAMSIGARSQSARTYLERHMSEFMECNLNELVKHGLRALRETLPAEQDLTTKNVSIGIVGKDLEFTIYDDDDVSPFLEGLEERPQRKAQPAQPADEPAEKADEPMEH
Sequence of human proteasome α4 subunit (O14818 whole entry): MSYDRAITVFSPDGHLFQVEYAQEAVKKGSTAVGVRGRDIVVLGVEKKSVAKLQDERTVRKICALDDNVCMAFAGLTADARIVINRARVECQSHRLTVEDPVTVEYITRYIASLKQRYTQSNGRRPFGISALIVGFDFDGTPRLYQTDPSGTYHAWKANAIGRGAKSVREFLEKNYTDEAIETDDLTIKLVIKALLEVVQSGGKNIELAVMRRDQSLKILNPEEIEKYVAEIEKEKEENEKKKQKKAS
Sequence of human proteasome α2 subunit (P25787 whole entry): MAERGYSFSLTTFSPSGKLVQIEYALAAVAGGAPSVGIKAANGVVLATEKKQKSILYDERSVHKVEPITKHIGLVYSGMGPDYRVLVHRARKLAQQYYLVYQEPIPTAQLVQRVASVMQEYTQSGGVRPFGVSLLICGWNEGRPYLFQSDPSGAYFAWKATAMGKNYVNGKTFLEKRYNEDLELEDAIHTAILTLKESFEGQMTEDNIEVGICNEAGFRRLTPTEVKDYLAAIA
Sequence of human proteasome α7 subunit, wild type (P25788 whole entry): as the sequence (P25788 whole entry, canonical isoform) above

stoichiometry N (α7^SR subunits per α2) [1]: 7
Substance: human proteasome α2 subunit (from UniProt P25787 1-234) (natural protein)

stoichiometry N [2]: 1.2 α7· per α4
stoichiometry N (α7^SR subunits per α4) [1]: 7
Substance: human proteasome α4 subunit (from UniProt O14818 1-248) (natural protein)

percent of the α7 tetradecamer disrupted into smaller complexes [3]: 50%
stoichiometry N [4]: 2
stoichiometry N (α7 subunits per α6) [5]: 14
stoichiometry N (α7 subunits per α6) [6]: 7
stoichiometry N (α7^SR subunits per α6) [1]: 7
Substance: human proteasome α6 subunit, short isoform (from UniProt P25786 1-263) (natural protein)

stoichiometry N [7]: 14
Substance: human proteasome α7 subunit, wild type (from UniProt P25788 1-255) (natural protein)

stoichiometry N [8]: 7
stoichiometry N [9]: 7
stoichiometry N [10]: 14
Substance: single-ring α7 mutant α7^SR (S96D, S100D, F102R, Y104R) (natural protein)
